We go through one molecule from article PMC5331223, “Differential regulation of the Epr3 receptor coordinates membrane-restricted rhizobial colonization of root nodule primordia”.

The series addresses NIN (520-878) (Lotus japonicus, UniProt Q9S7B1 520-878). In words: EMSA; 25 mM Tris-HCl pH 8.0, 80 mM NaCl, 35 mM KCl, 5 mM MgCl2, 10% glycerol, 1 mM DTT, 0.1% Triton; 25 nM probe, 2 ul protein (ERN1 0.75 mg/ml, NIN 1.0 mg/ml stock); 30 min at 30 C (ERN1) or 37 C (NIN); gel in 0.5x TBE. The conditions noted are these: protein: recombinant; tags: His-tag (pET30); label: 6-FAM at 5' of strand 1; blunt. On the technique in general: Mobility shift assays separate free from complexed probe on a gel.

Sequence of NIN (520-878) (Q9S7B1 entry or part of it): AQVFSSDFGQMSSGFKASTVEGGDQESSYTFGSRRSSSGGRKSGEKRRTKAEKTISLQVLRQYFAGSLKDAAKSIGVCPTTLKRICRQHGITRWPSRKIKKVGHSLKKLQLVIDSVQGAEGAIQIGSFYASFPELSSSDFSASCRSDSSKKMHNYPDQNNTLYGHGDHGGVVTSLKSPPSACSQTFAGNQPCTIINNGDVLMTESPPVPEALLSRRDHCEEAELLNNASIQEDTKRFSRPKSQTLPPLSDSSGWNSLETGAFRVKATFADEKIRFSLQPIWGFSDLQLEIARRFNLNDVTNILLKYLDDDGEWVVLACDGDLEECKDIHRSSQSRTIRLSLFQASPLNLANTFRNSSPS

B1: Nin1 probe (Epr3 promoter wt) (dsDNA)
DNA 1: ATACCCTGCCCTTACAGACAAGTATAAGAGGCACAAAA
DNA 2: TTTTGTGCCTCTTATACTTGTCTGTAAGGGCAGGGTAT
Regarding B1, the binding result is recorded as “binds”.
